Assay results as given in the RNAGym collection of RNA variant scans (doi:10.7554/elife.80360).

B1: Twister Ribozyme (parent)
chain: AACACUGCCAAUGCCGGUCCCAAGCCCGGAUAAAAGUGGAGGGGGCGG

Variants of: B1
Experiment: self-cleavage, relative activity (ratio to wild type); higher = more cleavage; co-transcriptional
AACACUGCCAAUGCCGGUCCCAAUCCUGGAUAAAAGUGGAGGGGGCGG [G24U C27U] showed a self-cleavage of 0.13.
Work on AACACUGCCAAUGCCGGUCCCAAGGCCGGAUAAGAGUGGAGGGGGCGG [C25G A34G] yielded a self-cleavage of 0.124.
For AACACUGCCAAUGCCGGUCCCAAGACCGGAUAAAAGUGGAGGGGGCUG [C25A G47U], the self-cleavage was 0.0657.
For AACACUGCCAAUGCCGGUCCCAAGACCGGAUAAAAGUGGAGGGGGCCG [C25A G47C], the self-cleavage was 0.0869.
Variant AACACUGCCAAUGCCGGUCCCAAGACCGGAUAAAAGUGGAGGGGGUGG [C25A C46U] has a self-cleavage of 0.104.
In the case of AACACUGCCAAUGCCGGUCCCAAGACCGGAUAAAAGUGGAGGGGGGGG [C25A C46G], the self-cleavage is reported as 0.0534.
AACACUGCCAAUGCCGGUCCCAAGACCGGAUAAAAGUGGAGGGGGAGG [C25A C46A] showed a self-cleavage of 0.07.
For AACACUGCCAAUGCCGGUCCCAAGGCCGGGUAAAAGUGGAGGGGGCGG [C25G A30G], the self-cleavage was 0.625.
AACACUGCCAAUGCCGGUCCCAAGGCCGGUUAAAAGUGGAGGGGGCGG [C25G A30U] gave a self-cleavage of 0.31.
For AACACUGCCAAUGCCGGUCCCAAGACCAGAUAAAAGUGGAGGGGGCGG [C25A G28A], the self-cleavage was 0.166.
Work on AACACUGCCAAUGCCGGUCCCAAGGCCGGAUAAAAGUGGAGGGGGAGG [C25G C46A] yielded a self-cleavage of 0.148.
For AACACUGCCAAUGCCGGUCCCAAGGCCGGAUAAAAGUGGAGGGGGGGG [C25G C46G], the self-cleavage was 0.223.
AACACUGCCAAUGCCGGUCCCAAGACCGGAUAAAAGUGGAAGGGGCGG [C25A G41A] showed a self-cleavage of 0.074.
For AACACUGCCAAUGCCGGUCCCAAGACCGGAUAAAAGUGGACGGGGCGG [C25A G41C], the self-cleavage was 0.106.
Work on AACACUGCCAAUGCCGGUCCCAAGGCCGGAUAAAAGUCGAGGGGGCGG [C25G G38C] yielded a self-cleavage of 0.229.
For AACACUGCCAAUGCCGGUCCCAAGGCCGGAUUAAAGUGGAGGGGGCGG [C25G A32U], the self-cleavage was 0.19.
With AACACUGCCAAUGCCGGUCCCAAUCCCGAAUAAAAGUGGAGGGGGCGG [G24U G29A] the self-cleavage was 0.127.
For AACACUGCCAAUGCCGGUCCCAAUCCCGGAUUAAAGUGGAGGGGGCGG [G24U A32U], the self-cleavage was 0.0649.
Work on AACACUGCCAAUGCCGGUCCCAAUCCCGGAUGAAAGUGGAGGGGGCGG [G24U A32G] yielded a self-cleavage of 0.113.
AACACUGCCAAUGCCGGUCCCAAUCCCGGAUAAAAGUGGAGGCGGCGG [G24U G43C] showed a self-cleavage of 0.076.
AACACUGCCAAUGCCGGUCCCAAUCCCGGAUACAAGUGGAGGGGGCGG [G24U A33C] gave a self-cleavage of 0.142.
AACACUGCCAAUGCCGGUCCCAAUCCCGGAUAGAAGUGGAGGGGGCGG [G24U A33G] showed a self-cleavage of 0.104.
In the case of AACACUGCCAAUGCCGGUCCCAAUCCCGGAUAUAAGUGGAGGGGGCGG [G24U A33U], the self-cleavage is reported as 0.121.
With AACACUGCCAAUGCCGGUCCCAAUCCCGGAUAAAUGUGGAGGGGGCGG [G24U A35U] the self-cleavage was 0.175.
In the case of AACACUGCCAAUGCCGGUCCCAAUCCCGGAUAAACGUGGAGGGGGCGG [G24U A35C], the self-cleavage is reported as 0.133.
Work on AACACUGCCAAUGCCGGUCCCAAGGCGGGAUAAAAGUGGAGGGGGCGG [C25G C27G] yielded a self-cleavage of 0.0774.
AACACUGCCAAUGCCGGUCCCAAGGCUGGAUAAAAGUGGAGGGGGCGG [C25G C27U] gave a self-cleavage of 0.136.
In the case of AACACUGCCAAUGCCGGUCCCAAGACCGGGUAAAAGUGGAGGGGGCGG [C25A A30G], the self-cleavage is reported as 0.233.
With AACACUGCCAAUGCCGGUCCCAAGACCGGCUAAAAGUGGAGGGGGCGG [C25A A30C] the self-cleavage was 0.0625.
For AACACUGCCAAUGCCGGUCCCAAGACCGGAUAAAAGAGGAGGGGGCGG [C25A U37A], the self-cleavage was 0.106.
Variant AACACUGCCAAUGCCGGUCCCAAGACCGGAUAAAAGGGGAGGGGGCGG [C25A U37G] has a self-cleavage of 0.0674.
Work on AACACUGCCAAUGCCGGUCCCAAUCCCGGAUAAAAGUGGAGGGGGCAG [G24U G47A] yielded a self-cleavage of 0.094.
For AACACUGCCAAUGCCGGUCCCAAUCCCGGAUAAAAGUGGAGGGGGCUG [G24U G47U], the self-cleavage was 0.0704.
In the case of AACACUGCCAAUGCCGGUCCCAAGGCCGGAUAAAUGUGGAGGGGGCGG [C25G A35U], the self-cleavage is reported as 0.299.
Work on AACACUGCCAAUGCCGGUCCCAAUCCCGGAUAAAAGUGGAGGGGGCGU [G24U G48U] yielded a self-cleavage of 0.0921.
For AACACUGCCAAUGCCGGUCCCAAUCCCGGAUAAAAGUGGAGGGGGCGA [G24U G48A], the self-cleavage was 0.0944.
In the case of AACACUGCCAAUGCCGGUCCCAAGACCGGAUACAAGUGGAGGGGGCGG [C25A A33C], the self-cleavage is reported as 0.0788.
Variant AACACUGCCAAUGCCGGUCCCAAGAGCGGAUAAAAGUGGAGGGGGCGG [C25A C26G] has a self-cleavage of 0.0788.
Variant AACACUGCCAAUGCCGGUCCCAAUCCCGGAUAAAAGUGGAGGGGGUGG [G24U C46U] has a self-cleavage of 0.0749.
For AACACUGCCAAUGCCGGUCCCAAUCCCGGAUAAAAGUGGAGGGGGAGG [G24U C46A], the self-cleavage was 0.0884.
AACACUGCCAAUGCCGGUCCCAAGACCGGAUAAAGGUGGAGGGGGCGG [C25A A35G] gave a self-cleavage of 0.0612.
AACACUGCCAAUGCCGGUCCCAAGACCGGAUAAACGUGGAGGGGGCGG [C25A A35C] gave a self-cleavage of 0.141.
With AACACUGCCAAUGCCGGUCCCAAGACCGGAUAAAUGUGGAGGGGGCGG [C25A A35U] the self-cleavage was 0.135.
AACACUGCCAAUGCCGGUCCCAAUCCCGGCUAAAAGUGGAGGGGGCGG [G24U A30C] gave a self-cleavage of 0.0633.
Work on AACACUGCCAAUGCCGGUCCCAAUCCCGGAUAAAAGUGGACGGGGCGG [G24U G41C] yielded a self-cleavage of 0.0917.
AACACUGCCAAUGCCGGUCCCAAUCCCGGAUAAAAGUGGAAGGGGCGG [G24U G41A] gave a self-cleavage of 0.0908.
Work on AACACUGCCAAUGCCGGUCCCAAGACCGGAUAAAAGUGUAGGGGGCGG [C25A G39U] yielded a self-cleavage of 0.115.
Work on AACACUGCCAAUGCCGGUCCCAAGACCGGAUAAAAGUGCAGGGGGCGG [C25A G39C] yielded a self-cleavage of 0.0833.
Variant AACACUGCCAAUGCCGGUCCCAAGACCGGAUAAAAGUGAAGGGGGCGG [C25A G39A] has a self-cleavage of 0.0801.
AACACUGCCAAUGCCGGUCCCAAUCCCGGAUAAAAGUGGGGGGGGCGG [G24U A40G] showed a self-cleavage of 0.0745.
AACACUGCCAAUGCCGGUCCCAACCCCGGAUAAAAGAGGAGGGGGCGG [G24C U37A] gave a self-cleavage of 0.107.
Variant AACACUGCCAAUGCCGGUCCCAAGACCGGAUAAAAGUGGAGGGGGCGC [C25A G48C] has a self-cleavage of 0.137.
AACACUGCCAAUGCCGGUCCCAAGGCCGGAUAAAAAUGGAGGGGGCGG [C25G G36A] showed a self-cleavage of 0.103.
Variant AACACUGCCAAUGCCGGUCCCAAGGCCGGAUAAAACUGGAGGGGGCGG [C25G G36C] has a self-cleavage of 0.0714.
